Legend:
[1] = biological target: T1, IL-12 receptor endogenously expressed on THP-1 cells (UniProt P42701 24-662; Q99665 24-862); experiment: FACS, hybridoma supernatant, THP-1
T1 construct: whole, on cells

[2] = biological target: T2, cyno IL-12RB1 overexpressed on 293T cells (Example 2) (cyno, UniProt A0A2K5VWV1 24-662); experiment: FACS, hybridoma supernatant, 293T
T2 construct: whole, on cells

[3] = biological target: T3, human IL-12RB1 overexpressed on 293T cells (Example 2) (human, UniProt P42701 24-662); experiment: FACS, hybridoma supernatant, 293T
T3 construct: whole, on cells

B1: 85801_10F19 (antibody, V domains shown)
VH: QVQLVQSGAEVRKPGASVKVSCKASGYTFTDYYMHWVRQAPGQGREWMGWINPNSGGTHYAQKFQGRVTMTWDTSISTAYMELSRLRSDDTAVYYCAREGATTVYFDYWGQGTLVTVSS
VL: DIQLTQSPSFLSASVGDRVTLTCRASQGINNYLAWYQEKPGKAPNPLIYDASTLQSGVPSRFSGSGSGTEFTLTISSLQPEDFATYYCQQLNMYPYTFGQGTKLEIK
notes: also called 85801_10F19A
Fold over buffer [1]: 8 fold
Fold over parental 293T [2]: 16 fold
Fold over parental 293T [3]: 41 fold

B2: 85801_10M19 (antibody, V domains shown)
VH: EVQLVESGGGLVQPGGSLRLSCAASGFTFSSYDMHWVRQATGKGLEWVSVIGTAGDTYYPGSVKGRFTISRENAKNSLYLQMNSLRAGDTAVYYCARSRGETDWYFDLWGRGTLVTVSS
VL: EIVLTQSPATLSLSPGERATLSCRASQSVSRLLAWYQQKPGQAPRLLIYDASNRATGIPARFSGSGSGTDFTLTISSLEPEDFAVYYCQQRRNWLTFGGGTKVEIK
notes: also called 85801_10M19A
Fold over buffer [1]: 35 fold
Fold over parental 293T [2]: 21 fold
Fold over parental 293T [3]: 58 fold

B3: 85801_04D14 (antibody, V domains shown)
VH: QVHLVQSGAEVKKPGASVKVSCKASGYTFIDYYMHWVRQAPGQGLEWMGWINPNSGGTHYSQKFQGRVTMTWDTSISTAYMELSRLTSDDTAVYYCAREGDYISSSAFDYWGQGTLVTVSS
VL: DIQLTQSPSFLSASVGDRVTITCRASQGISSYLAWYQQKPGKAPKVLIYAASTLQSGVPSRFSGSGSGTEFTLTISSLLPEDFATYFCQQLHRYPYTFGQGAKLEIK
notes: also called 85801_04D14A
Fold over buffer [1]: 17 fold
Fold over parental 293T [2]: 44 fold
Fold over parental 293T [3]: 202 fold

B4: 85801_04G23 (antibody, V domains shown)
VH: QVQLVESGGGVVQPGRSLRLSCAASGFTFSSYGMHWVRQAPGKGLEWVAVIWNDGSNKYYADSVKGRFTISRDNSKNTLYLQMNSLRAEDTAVYYCARGELFFDYWGQGTLVTVSS
VL: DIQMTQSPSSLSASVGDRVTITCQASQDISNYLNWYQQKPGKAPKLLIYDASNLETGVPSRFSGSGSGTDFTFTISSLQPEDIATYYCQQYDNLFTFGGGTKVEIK
notes: also called 85801_04G23A
Fold over buffer [1]: 46 fold
Fold over parental 293T [2]: 27 fold
Fold over parental 293T [3]: 73 fold

B5: 85801_04M10 (antibody, V domains shown)
VH: QVQLQESGPGLVKPSETLSLTCTVSGGSISSYYWSWIRQPAGTGLEWIGRFYTSGSTIYNPSLESRVTMSVDTSKNQFSLKLSSVTAADTAVYYCATERDYPHDAFDIWGQGTMVTVSS
VL: DIQLTQSPSFLSASVGDRVTIPCRASQDISSFLAWYQQKPGKAPNLLIYAASTLQSGVPSRFSGSGSGTEFTLTISSLQPEDFATYYCQQLNGYPLTFGGGTKVEIK
notes: also called 85801_04M10A
Fold over buffer [1]: 36 fold
Fold over parental 293T [2]: 122 fold
Fold over parental 293T [3]: 336 fold

B6: 85801_04M12 (antibody, V domains shown)
VH: QVQLVESGGGVVQPGRSLRLSCAASGFTFSSHGMHWVRQAPGKGLEWVAIIWYAGNKKYYADSVKGRFTISRDNSKNTLYLQMNSLRAEDTAVYYCARESLLNSASDIWGQGTMVTVSS
VL: QSVLTQPPSVSAAPGQTVTISCSGSSSNIGNNYVSWYQQLPGTAPKLLIYDNNKRPSGIPDRFSGSKSGTSATLGITGLQTGDEADYYCGTWDSSLSAVVFGGGTKLTVL
notes: also called 85801_04M12A
Fold over buffer [1]: 45 fold
Fold over parental 293T [2]: 71 fold
Fold over parental 293T [3]: 192 fold

B7: 85801_07A01 (antibody, V domains shown)
VH: EVQLVESGGGLVQPGGSLRLSCAASGFTFSSYWMSWVRQAPGKGLEWVANIKQDGSEKYYVDSVKGRFTISRDNAKNSLYLQMNSLRAEDTAVYYCAREGLQLGIFDYWGQGTLVTVSS
VL: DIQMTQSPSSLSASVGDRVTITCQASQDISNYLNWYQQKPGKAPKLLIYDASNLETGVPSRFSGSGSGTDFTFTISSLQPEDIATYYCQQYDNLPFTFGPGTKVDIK
notes: also called 85801_07A01A
Fold over buffer [1]: 37 fold
Fold over parental 293T [2]: 21 fold
Fold over parental 293T [3]: 57 fold

B8: 85801_04M04 (antibody, V domains shown)
VH: QVQLVQSGAEVKKPGASVRVSCKASGYTFTSYYIHWVRQAPGQGLEWMGIINPSGGSTSYAQKFQGRVTMTRDTSTTTVYMELSSLRSEDTAVYYCAKSNWAYAFDIWGQGTMVTVSS
VL: SSELTQDPAVSVALGQTVRITCQGDSLSSYYAGWYQQKPGQAPVLVIYGKNNRPSGIPDRFSGSSSEDTASLTITGAQAEDEADYYCNSRDSSDNHLVFGGGTKLTVL
notes: also called 85801_04M04A
Fold over buffer [1]: 12 fold
Fold over parental 293T [2]: 195 fold
Fold over parental 293T [3]: 620 fold

B9: 85801_05F05 (antibody, V domains shown)
VH: QVQLQQWGAGLLKPSETLSLTCAVYGGSFSGYYWNWIRQPPGKGLEWIGEINHSGSTHYNPSLKSRVTISVDTSKNQFSLKLSSVTAADTALYYCARALTGYFDYWGQGTLVTVSS
VL: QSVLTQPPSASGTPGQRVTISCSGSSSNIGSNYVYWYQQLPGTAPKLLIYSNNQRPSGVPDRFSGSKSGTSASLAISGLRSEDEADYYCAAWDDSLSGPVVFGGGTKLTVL
notes: also called 85801_05F05A
Fold over buffer [1]: 56 fold
Fold over parental 293T [2]: 118 fold
Fold over parental 293T [3]: 311 fold

B10: 85801_05G01 (antibody, V domains shown)
VH: QVQLVQSGAEVKKPGASAKVSCKASGYTFTDYYLHWVRQAPGQGLEWMGWINPNNGGTHYAQKFQGRVTMTRDTSISTAYMELSRLRSDDTAVYYCAREMGGTTAFDYWGQGTLVTVSS
VL: DIQMTQSPSSLSASVGDRVTITCRASQGIGNYLAWFQQRPGKAPKSLIYAASSLQSGVPSKFSGSGSGTDFTLTISSLQPADFAIYYCQQYNIYPYTFGPGTRLEIK
notes: also called 85801_05G01A
Fold over buffer [1]: 7 fold
Fold over parental 293T [2]: 73 fold
Fold over parental 293T [3]: 170 fold

B11: 85801_06L19 (antibody, V domains shown)
VH: QVQLVQSGAEVKKPGASVKVSCKASGYTFTDYYIHWVRQAPGQGLEWMGWINPDSGGTHYAQKFQGRVTMTRDTSISTVYMDLSRLRSDDTAVYYCAREGEGLASFDSWGQGTLVTVSS
VL: DIQMTQSPSSLSASVGNRVTITCRASQGINNYLAWFQQKPGKAPKSLIYAASSLQSGVPSKFSGSGSGTDFTLTISSLQPEDFATYYCQQYNNYPFTFGPGTKVDIK
notes: also called 85801_06L19A
Fold over buffer [1]: 9 fold
Fold over parental 293T [2]: 25 fold
Fold over parental 293T [3]: 73 fold

— patent US20250019450A1 (DIAGONAL THERAPEUTICS, published 2025)
